Target: T1, Saccharomyces cerevisiae eIF4E (S. cerevisiae, UniProt P07260 1-213, ^15N labeled)
T1 construct: eIF4E of Saccharomyces cerevisiae; source: E. coli BL21-star, purified (nickel resin, TEV cleavage, m^7G cap resin)
T1 sequence (looked up): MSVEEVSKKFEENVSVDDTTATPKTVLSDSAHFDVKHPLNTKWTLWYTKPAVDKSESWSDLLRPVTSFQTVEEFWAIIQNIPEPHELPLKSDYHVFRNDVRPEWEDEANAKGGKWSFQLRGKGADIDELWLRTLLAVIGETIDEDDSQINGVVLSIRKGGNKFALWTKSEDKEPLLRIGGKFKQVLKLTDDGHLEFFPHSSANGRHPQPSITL
Assay: NMR titration; ^15N HSQC of 200 μM ^15N S. cerevisiae eIF4E with 250 μM m^7GTP; peptide added to 1 mM; 50 mM phosphate pH 6.5, 50 mM KCl, 298 K, 900 MHz
Settings: both partners purified

B1: 4E-BP1 peptide (amino acids 51–67) (peptide)
peptide: RIIYDRKFLMECRNSPV
notes: human 4E-BP1, amino acids 51–67; also called human 4E-BP1 amino acids 51–67; source: synthetic peptide (Elim Bio)
binding result: binds

Reference: paper PMC11251518, “A novel reporter for helicase activity in translation uncovers DDX3X interactions” (RNA, 2024)
